# Measured values published in patent publication US20080058263A1 (published 2008).
# Changes are numbered by the printed parent chain.
# T1: VEGFR-3-Fc (UniProt P35916 25-328)
# T1 construct: domain: first three Ig domains; conditioned supernatant of 293T cells; also called VEGFR-3-Fc fusion protein; not shown: Fc fragment of the pIg vector
# T1 sequence (looked up): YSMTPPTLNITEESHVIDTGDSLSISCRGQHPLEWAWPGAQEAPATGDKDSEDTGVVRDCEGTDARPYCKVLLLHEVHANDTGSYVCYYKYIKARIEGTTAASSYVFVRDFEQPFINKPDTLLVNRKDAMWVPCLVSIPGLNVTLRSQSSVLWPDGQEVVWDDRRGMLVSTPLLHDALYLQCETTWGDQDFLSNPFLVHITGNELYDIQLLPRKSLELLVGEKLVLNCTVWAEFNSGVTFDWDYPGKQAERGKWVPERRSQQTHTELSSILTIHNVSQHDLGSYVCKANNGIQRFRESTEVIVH
# B1: 21-4 (ligand)
# chain: AHYNTEILKSIDNEWRKTQCMPREVCIDVGKEYPDEIEYIFKPSCVPLMRCGGCCNSEGLQCMNTSTSYLSKTLFEIKPHQGQHIGEMSFLQHNKCECRPKKD
# B2: 44-2 (ligand)
# chain: AHYNTEILKFMDVYQRSYCHPREVCIDVGKEFGVATNTFFKPSCVPLMRCGGCCNDEGLECMNTSTSYLSKTLFEIKPHQGQHIGEMSFLQHNKCECRPKKD
# B3: 44-4 (ligand)
# chain: B2 chain with D56S, E60Q
# B4: 41-14 (ligand)
# chain: AHYNTEILKFMDVYQRSYCHPREVCIDVGKEYPDEIEYIFKPSCVPLMRCGGCCNDEGLECMNTSTSYLSKTLFEITVPLSQGPKPVTISFANHTSCRCMSKLD
# B5: 41-16 (ligand)
# chain: B4 chain with D56S, E60Q
# B6: 43-14 (ligand)
# chain: B4 chain with S43P, P46S, L47V, M48Y
# B7: 43-16 (ligand)
# chain: B4 chain with S43P, P46S, L47V, M48Y, D56S, E60Q
# B8: 21-3 (ligand)
# chain: AHYNTEILKSIDNEWRKTQCMPREVCIDVGKEYPDEIEYIFKPSCVPLMRCGGCCNSEGLQCVPTEESNITMQIMRIKPHQGQHIGEMSFLQHNKCECRPKKD
# B9: 42-10 (ligand)
# chain: AHYNTEILKFMDVYQRSYCHPREVCIDVGKEFGVATNTFFKPPCVSVYRCGGCCNDEGLECMNTSTSYLSKTLFEITVPLSQGPKPVTISFLQHNKCECRPKKD
# B10: 42-12 (ligand)
# chain: B9 chain with D56S, E60Q
# B11: 42-6 (ligand)
# chain: AHYNTEILKFMDVYQRSYCHPREVCIDVGKEFGVATNTFFKPPCVSVYRCGGCCNDEGLECMNTSTSYLSKTLFEIKPHQGQHIGEMSFANHTSCRCMSKLD
# B12: 44-8 (ligand)
# chain: B11 chain with P43S, S46P, V47L, Y48M, D56S, E60Q
# B13: 42-8 (ligand)
# chain: B11 chain with D56S, E60Q
# B14: 42-9 (ligand)
# chain: AHYNTEILKFMDVYQRSYCHPREVCIDVGKEFGVATNTFFKPPCVSVYRCGGCCNDEGLECVPTEESNITMQIMRITVPLSQGPKPVTISFLQHNKCECRPKKD
# B15: 42-15 (ligand)
# chain: B14 chain with D56S, E60Q, L92A, Q93N, N95T, K96S, E98R, R100M, P101S, K103L
# B16: 42-13 (ligand)
# chain: B14 chain with L92A, Q93N, N95T, K96S, E98R, R100M, P101S, K103L
# B17: 42-11 (ligand)
# chain: B14 chain with D56S, E60Q
# B18: 41-9 (ligand)
# chain: AHYNTEILKFMDVYQRSYCHPREVCIDVGKEYPDEIEYIFKPSCVPLMRCGGCCNDEGLECVPTEESNITMQIMRITVPLSQGPKPVTISFLQHNKCECRPKKD
# B19: 41-11 (ligand)
# chain: B18 chain with D56S, E60Q
# B20: 44-9 (ligand)
# chain: B14 chain with P43S, S46P, V47L, Y48M
# B21: 43-9 (ligand)
# chain: B18 chain with S43P, P46S, L47V, M48Y
# B22: 43-11 (ligand)
# chain: B18 chain with S43P, P46S, L47V, M48Y, D56S, E60Q
# B23: 42-1 (ligand)
# chain: AHYNTEILKFMDVYQRSYCHPREVCIDVGKEFGVATNTFFKPPCVSVYRCGGCCNDEGLECVPTEESNITMQIMRIKPHQGQHIGEMSFLQHNKCECRPKKD
# Target: T1, VEGFR-3-Fc
# Test: receptor-Fc IP
# Procedure, shortened: (§1)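 Binding of ligand from sample supernatant measured by pentahistidine-antibody immunoprecipitation. IP mix: PBS with 1.5% BSA, 0.06% Tween 20, 3 μg/ml heparin and 400 ng/ml fusion protein, added 1:2 to sample supernatant.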
row,binding result,Binder
1,no binding,B1
2,no binding,B2
3,no binding,B3
4,no binding,B4
5,no binding,B5
6,no binding,B6
7,no binding,B7
8,no binding,B8
9,no binding,B9
10,no binding,B10
11,no binding,B11
12,no binding,B12
13,no binding,B13
14,no binding,B14
15,no binding,B15
16,no binding,B16
17,no binding,B17
18,no binding,B18
19,no binding,B19
20,no binding,B20
21,no binding,B21
22,no binding,B22
23,no binding,B23

# Target: T2, VEGFR-1-Fc (UniProt P17948 27-338)
# T2 construct: domain: first three Ig domains; expressed in Drosophila S2 cells, purified on Protein A sepharose; also called VEGFR-1-Fc fusion protein; not shown: Fc fragment from the Signal-pIgPlus vector
# Test: receptor-Fc IP
# Procedure, shortened: as §1
# T2 sequence (P17948 27-338): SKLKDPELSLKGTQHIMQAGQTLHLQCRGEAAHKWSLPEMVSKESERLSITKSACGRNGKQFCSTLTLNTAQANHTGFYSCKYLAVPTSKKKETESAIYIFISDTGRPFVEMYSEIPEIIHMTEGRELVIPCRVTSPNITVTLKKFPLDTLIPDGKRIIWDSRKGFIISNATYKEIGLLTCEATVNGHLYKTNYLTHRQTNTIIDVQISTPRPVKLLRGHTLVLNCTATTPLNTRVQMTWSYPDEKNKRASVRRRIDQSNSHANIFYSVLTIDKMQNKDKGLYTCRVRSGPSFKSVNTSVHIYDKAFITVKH
row,binding result,Binder
1,no binding,B1
2,no binding,B2
3,no binding,B3
4,no binding,B4
5,no binding,B5
6,no binding,B6
7,no binding,B7
8,no binding,B8
9,no binding,B9
10,no binding,B10
11,no binding,B11
12,no binding,B12
13,no binding,B13
14,no binding,B14
15,no binding,B15
16,no binding,B16
17,no binding,B17
18,no binding,B18
19,no binding,B19
20,no binding,B20
21,no binding,B21
22,no binding,B22
23,no binding,B23

# Target: T3, VEGFR-2-Fc (UniProt P35968 20-322)
# T3 construct: domain: first 3 Ig domains; conditioned supernatant of 293T cells; also called VEGFR-2-Fc fusion protein; not shown: Fc fragment of the pIg vector
# Test: receptor-Fc IP
# Procedure, shortened: as §1
# T3 sequence (P35968 20-322): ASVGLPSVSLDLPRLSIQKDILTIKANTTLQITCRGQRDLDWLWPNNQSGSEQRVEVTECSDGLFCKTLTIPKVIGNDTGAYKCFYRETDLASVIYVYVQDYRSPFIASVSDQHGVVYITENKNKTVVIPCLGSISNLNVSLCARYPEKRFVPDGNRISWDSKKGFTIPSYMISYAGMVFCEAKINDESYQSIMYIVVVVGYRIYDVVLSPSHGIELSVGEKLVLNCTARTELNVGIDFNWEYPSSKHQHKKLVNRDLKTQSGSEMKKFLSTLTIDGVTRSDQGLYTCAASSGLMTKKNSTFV
row,binding result,Binder
1,no binding,B1
2,no binding,B2
3,no binding,B3
4,no binding,B4
5,no binding,B5
6,no binding,B6
7,no binding,B7
8,no binding,B8
9,no binding,B9
10,no binding,B10
11,no binding,B11
12,no binding,B12
13,no binding,B13
14,no binding,B14
15,no binding,B15
16,no binding,B16
17,no binding,B17
18,no binding,B18
19,no binding,B19
20,no binding,B20
21,no binding,B21
22,no binding,B22
23,no binding,B23
